Measurements published in patent US20110229560A1 (published 2011).

B1: TRAF3 (expressed in 293T cells) (other, UniProt Q13114 1-568, looked up, not shown: small tags and cut ends)
chain: MESSKKMDSPGALQTNPPLKLHTDRSAGTPVFVPEQGGYKEKFVKTVEDKYKCEKCHLVLCSPKQTECGHRFCESCMAALLSSSSPKCTACQESIVKDKVFKDNCCKREILALQIYCRNESRGCAEQLMLGHLLVHLKNDCHFEELPCVRPDCKEKVLRKDLRDHVEKACKYREATCSHCKSQVPMIALQKHEDTDCPCVVVSCPHKCSVQTLLRSELSAHLSECVNAPSTCSFKRYGCVFQGTNQQIKAHEASSAVQHVNLLKEWSNSLEKKVSLLQNESVEKNKSIQSLHNQICSFEIEIERQKEMLRNNESKILHLQRVIDSQAEKLKELDKEIRPFRQNWEEADSMKSSVESLQNRVTELESVDKSAGQVARNTGLLESQLSRHDQMLSVHDIRLADMDLRFQVLETASYNGVLIWKIRDYKRRKQEAVMGKTLSLYSQPFYTGYFGYKMCARVYLNGDGMGKGTHLSLFFVIMRGEYDALLPWPFKQKVTLMLMDQGSSRRHLGDAFKPDPNSSSFKKPTGEMNIASGCPVFVAQTVLENGTYIKDDTIFIKVIVDTSDLPDP
B2: IRF3 (expressed in 293T cells) (other, UniProt Q14653 1-427, looked up, not shown: small tags and cut ends)
chain: MGTPKPRILPWLVSQLDLGQLEGVAWVNKSRTRFRIPWKHGLRQDAQQEDFGIFQAWAEATGAYVPGRDKPDLPTWKRNFRSALNRKEGLRLAEDRSKDPHDPHKIYEFVNSGVGDFSQPDTSPDTNGGGSTSDTQEDILDELLGNMVLAPLPDPGPPSLAVAPEPCPQPLRSPSLDNPTPFPNLGPSENPLKRLLVPGEEWEFEVTAFYRGRQVFQQTISCPEGLRLVGSEVGDRTLPGWPVTLPDPGMSLTDRGVMSYVRHVLSCLGGGLALWRAGQWLWAQRLGHCHTYWAVSEELLPNSGHGPDGEVPKDKEGGVFDLGPFIVDLITFTEGSGRSPRYALWFCVGESWPQDQPWTKRLVMVKVVPTCLRALVEMARVGGASSLENTVDLHISNSHPLSLTSDQYKAYLQDLVEGMDFQGPGES
B3: endogenous NEMO (RAW264.7 cells) (other, mouse, UniProt O88522 1-412, looked up)
chain: MNKHPWKNQLSEMVQPSGGPAEDQDMLGEESSLGKPAMLHLPSEQGTPETLQRCLEENQELRDAIRQSNQMLRERCEELLHFQVSQREEKEFLMCKFQEARKLVERLSLEKLDLRSQREQALKELEQLKKCQQQMAEDKASVKAQVTSLLGELQESQSRLEAATKDRQALEGRIRAVSEQVRQLESEREVLQQQHSVQVDQLRMQNQSVEAALRMERQAASEEKRKLAQLQAAYHQLFQDYDSHIKSSKGMQLEDLRQQLQQAEEALVAKQELIDKLKEEAEQHKIVMETVPVLKAQADIYKADFQAERHAREKLVEKKEYLQEQLEQLQREFNKLKVGCHESARIEDMRKRHVETPQPPLLPAPAHHSFHLALSNQRRSPPEEPPDFCCPKCQYQAPDMDTLQIHVMECIE
B4: Flag-MAVS (other, UniProt Q7Z434 1-540, looked up, not shown: small tags and cut ends)
chain: MPFAEDKTYKYICRNFSNFCNVDVVEILPYLPCLTARDQDRLRATCTLSGNRDTLWHLFNTLQRRPGWVEYFIAALRGCELVDLADEVASVYQSYQPRTSDRPPDPLEPPSLPAERPGPPTPAAAHSIPYNSCREKEPSYPMPVQETQAPESPGENSEQALQTLSPRAIPRNPDGGPLESSSDLAALSPLTSSGHQEQDTELGSTHTAGATSSLTPSRGPVSPSVSFQPLARSTPRASRLPGPTGSVVSTGTSFSSSSPGLASAGAAEGKQGAESDQAEPIICSSGAEAPANSLPSKVPTTLMPVNTVALKVPANPASVSTVPSKLPTSSKPPGAVPSNALTNPAPSKLPINSTRAGMVPSKVPTSMVLTKVSASTVPTDGSSRNEETPAAPTPAGATGGSSAWLDSSSENRGLGSELSKPGVLASQVDSPFSGCFEDLAISASTSLGMGPCHGPEENEYKSEGTFGIHVAENPSIQLLEGNPGPPADPDGGPRPQADRKFQEREVPCHRPSPGALWLQVAVTGVLVVTLLVVLYRRRLH
B5: IKKi (expressed in 293T cells, detected with anti-Flag) (enzyme, UniProt Q14164 1-716, looked up, not shown: small tags and cut ends)
chain: MQSTANYLWHTDDLLGQGATASVYKARNKKSGELVAVKVFNTTSYLRPREVQVREFEVLRKLNHQNIVKLFAVEETGGSRQKVLVMEYCSSGSLLSVLESPENAFGLPEDEFLVVLRCVVAGMNHLRENGIVHRDIKPGNIMRLVGEEGQSIYKLTDFGAARELDDDEKFVSVYGTEEYLHPDMYERAVLRKPQQKAFGVTVDLWSIGVTLYHAATGSLPFIPFGGPRRNKEIMYRITTEKPAGAIAGAQRRENGPLEWSYTLPITCQLSLGLQSQLVPILANILEVEQAKCWGFDQFFAETSDILQRVVVHVFSLSQAVLHHIYIHAHNTIAIFQEAVHKQTSVAPRHQEYLFEGHLCVLEPSVSAQHIAHTTASSPLTLFSTAIPKGLAFRDPALDVPKFVPKVDLQADYNTAKGVLGAGYQALRLARALLDGQELMFRGLHWVMEVLQATCRRTLEVARTSLLYLSSSLGTERFSSVAGTPEIQELKAAAELRSRLRTLAEVLSRCSQNITETQESLSSLNRELVKSRDQVHEDRSIQQIQCCLDKMNFIYKQFKKSRMRPGLGYNEEQIHKLDKVNFSHLAKRLLQVFQEECVQKYQASLVTHGKRMRVVHETRNHLRLVGCSVAACNTEAQGVQESLSKLLEELSHQLLQDRAKGAQASPPPIAPYPSPTRKDLLLHMQELCEGMKLLASDLLDNNRIIERLNRVPAPPDV
B6: TBK1 (expressed in 293T cells) (enzyme, UniProt Q9UHD2 1-729, looked up, not shown: small tags and cut ends)
chain: MQSTSNHLWLLSDILGQGATANVFRGRHKKTGDLFAIKVFNNISFLRPVDVQMREFEVLKKLNHKNIVKLFAIEEETTTRHKVLIMEFCPCGSLYTVLEEPSNAYGLPESEFLIVLRDVVGGMNHLRENGIVHRDIKPGNIMRVIGEDGQSVYKLTDFGAARELEDDEQFVSLYGTEEYLHPDMYERAVLRKDHQKKYGATVDLWSIGVTFYHAATGSLPFRPFEGPRRNKEVMYKIITGKPSGAISGVQKAENGPIDWSGDMPVSCSLSRGLQVLLTPVLANILEADQEKCWGFDQFFAETSDILHRMVIHVFSLQQMTAHKIYIHSYNTATIFHELVYKQTKIISSNQELIYEGRRLVLEPGRLAQHFPKTTEENPIFVVSREPLNTIGLIYEKISLPKVHPRYDLDGDASMAKAITGVVCYACRIASTLLLYQELMRKGIRWLIELIKDDYNETVHKKTEVVITLDFCIRNIEKTVKVYEKLMKINLEAAELGEISDIHTKLLRLSSSQGTIETSLQDIDSRLSPGGSLADAWAHQEGTHPKDRNVEKLQVLLNCMTEIYYQFKKDKAERRLAYNEEQIHKFDKQKLYYHATKAMTHFTDECVKKYEAFLNKSEEWIRKMLHLRKQLLSLTNQCFDIEEEVSKYQEYTNELQETLPQKMFTASSGIKHTMTPIYPSSNTLVEMTLGMKKLKEEMEGVVKELAENNHILERFGSLTMDGGLRNVDCL

Legend:
[1] = molecular target: T1, HA-tagged NLRC5 (human NLRC5, full length) (human, UniProt Q86WI3 1-1866); test: co-IP (anti-Flag or anti-HA beads) and Western blot, FIG. 15
T1 construct: Expressed from pcDNA3.1 with an HA tag in transfected 293T cells; used in lysates for co-immunoprecipitation; General statements about NLRC5 in overexpression experiments are put on this molecule; also called HA-NLRC5
T1 sequence (Q86WI3 whole entry N907D): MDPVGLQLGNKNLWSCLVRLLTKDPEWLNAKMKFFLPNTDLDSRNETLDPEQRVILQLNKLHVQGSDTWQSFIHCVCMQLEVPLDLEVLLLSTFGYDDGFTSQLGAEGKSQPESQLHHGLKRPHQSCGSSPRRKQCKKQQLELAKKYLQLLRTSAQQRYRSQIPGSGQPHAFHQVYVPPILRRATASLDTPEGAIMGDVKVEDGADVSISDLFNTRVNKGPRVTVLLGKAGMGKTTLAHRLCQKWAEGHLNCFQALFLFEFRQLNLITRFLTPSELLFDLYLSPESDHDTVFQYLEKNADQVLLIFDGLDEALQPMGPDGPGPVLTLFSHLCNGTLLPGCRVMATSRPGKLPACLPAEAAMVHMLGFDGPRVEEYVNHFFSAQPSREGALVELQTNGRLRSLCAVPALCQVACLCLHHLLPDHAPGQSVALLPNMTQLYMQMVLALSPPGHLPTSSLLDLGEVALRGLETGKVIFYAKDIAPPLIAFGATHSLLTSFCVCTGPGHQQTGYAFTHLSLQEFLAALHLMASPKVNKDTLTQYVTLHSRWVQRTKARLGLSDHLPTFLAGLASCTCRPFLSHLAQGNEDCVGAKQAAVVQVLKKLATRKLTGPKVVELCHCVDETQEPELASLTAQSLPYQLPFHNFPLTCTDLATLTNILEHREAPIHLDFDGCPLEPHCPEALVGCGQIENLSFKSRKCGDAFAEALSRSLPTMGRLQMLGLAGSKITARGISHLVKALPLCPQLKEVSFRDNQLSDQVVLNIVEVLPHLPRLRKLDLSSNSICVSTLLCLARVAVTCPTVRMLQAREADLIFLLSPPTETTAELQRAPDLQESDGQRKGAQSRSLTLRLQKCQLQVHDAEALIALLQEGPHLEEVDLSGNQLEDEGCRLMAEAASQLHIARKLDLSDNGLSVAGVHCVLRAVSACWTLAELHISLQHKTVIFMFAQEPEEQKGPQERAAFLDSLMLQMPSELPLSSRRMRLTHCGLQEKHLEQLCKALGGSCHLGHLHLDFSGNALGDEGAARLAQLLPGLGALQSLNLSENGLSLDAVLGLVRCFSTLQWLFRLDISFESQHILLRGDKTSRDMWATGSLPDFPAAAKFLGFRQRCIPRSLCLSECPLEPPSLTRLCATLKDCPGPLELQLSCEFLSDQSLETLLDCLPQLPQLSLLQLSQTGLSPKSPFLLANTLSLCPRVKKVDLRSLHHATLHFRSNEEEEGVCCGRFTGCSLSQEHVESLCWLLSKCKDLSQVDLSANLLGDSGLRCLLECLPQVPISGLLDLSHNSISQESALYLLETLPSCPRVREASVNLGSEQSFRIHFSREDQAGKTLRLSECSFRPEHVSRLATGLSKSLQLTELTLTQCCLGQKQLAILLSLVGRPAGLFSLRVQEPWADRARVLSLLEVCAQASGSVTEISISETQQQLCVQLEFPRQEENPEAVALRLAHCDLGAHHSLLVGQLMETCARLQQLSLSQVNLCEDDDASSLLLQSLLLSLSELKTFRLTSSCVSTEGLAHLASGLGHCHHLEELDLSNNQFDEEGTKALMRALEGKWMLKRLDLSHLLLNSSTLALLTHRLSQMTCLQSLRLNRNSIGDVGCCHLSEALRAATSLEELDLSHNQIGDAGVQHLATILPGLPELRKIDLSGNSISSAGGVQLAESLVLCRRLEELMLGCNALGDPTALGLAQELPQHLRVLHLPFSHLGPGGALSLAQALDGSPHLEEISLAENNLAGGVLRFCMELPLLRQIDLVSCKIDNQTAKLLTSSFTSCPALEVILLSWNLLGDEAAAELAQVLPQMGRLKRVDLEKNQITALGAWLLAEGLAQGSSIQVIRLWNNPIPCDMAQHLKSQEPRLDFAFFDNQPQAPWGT

[2] = molecular target: T2, endogenous mouse NLRC5 (RAW264.7 cells) (mouse, UniProt C3VPR6 1-1915, limits assumed); test: IP of RAW264.7 lysate with anti-mNLRC5, Western blot with anti-NEMO
T2 construct: Endogenous protein; also called mNLRC5; endogenous mNLRC5
T2 sequence (C3VPR6 whole entry G881R): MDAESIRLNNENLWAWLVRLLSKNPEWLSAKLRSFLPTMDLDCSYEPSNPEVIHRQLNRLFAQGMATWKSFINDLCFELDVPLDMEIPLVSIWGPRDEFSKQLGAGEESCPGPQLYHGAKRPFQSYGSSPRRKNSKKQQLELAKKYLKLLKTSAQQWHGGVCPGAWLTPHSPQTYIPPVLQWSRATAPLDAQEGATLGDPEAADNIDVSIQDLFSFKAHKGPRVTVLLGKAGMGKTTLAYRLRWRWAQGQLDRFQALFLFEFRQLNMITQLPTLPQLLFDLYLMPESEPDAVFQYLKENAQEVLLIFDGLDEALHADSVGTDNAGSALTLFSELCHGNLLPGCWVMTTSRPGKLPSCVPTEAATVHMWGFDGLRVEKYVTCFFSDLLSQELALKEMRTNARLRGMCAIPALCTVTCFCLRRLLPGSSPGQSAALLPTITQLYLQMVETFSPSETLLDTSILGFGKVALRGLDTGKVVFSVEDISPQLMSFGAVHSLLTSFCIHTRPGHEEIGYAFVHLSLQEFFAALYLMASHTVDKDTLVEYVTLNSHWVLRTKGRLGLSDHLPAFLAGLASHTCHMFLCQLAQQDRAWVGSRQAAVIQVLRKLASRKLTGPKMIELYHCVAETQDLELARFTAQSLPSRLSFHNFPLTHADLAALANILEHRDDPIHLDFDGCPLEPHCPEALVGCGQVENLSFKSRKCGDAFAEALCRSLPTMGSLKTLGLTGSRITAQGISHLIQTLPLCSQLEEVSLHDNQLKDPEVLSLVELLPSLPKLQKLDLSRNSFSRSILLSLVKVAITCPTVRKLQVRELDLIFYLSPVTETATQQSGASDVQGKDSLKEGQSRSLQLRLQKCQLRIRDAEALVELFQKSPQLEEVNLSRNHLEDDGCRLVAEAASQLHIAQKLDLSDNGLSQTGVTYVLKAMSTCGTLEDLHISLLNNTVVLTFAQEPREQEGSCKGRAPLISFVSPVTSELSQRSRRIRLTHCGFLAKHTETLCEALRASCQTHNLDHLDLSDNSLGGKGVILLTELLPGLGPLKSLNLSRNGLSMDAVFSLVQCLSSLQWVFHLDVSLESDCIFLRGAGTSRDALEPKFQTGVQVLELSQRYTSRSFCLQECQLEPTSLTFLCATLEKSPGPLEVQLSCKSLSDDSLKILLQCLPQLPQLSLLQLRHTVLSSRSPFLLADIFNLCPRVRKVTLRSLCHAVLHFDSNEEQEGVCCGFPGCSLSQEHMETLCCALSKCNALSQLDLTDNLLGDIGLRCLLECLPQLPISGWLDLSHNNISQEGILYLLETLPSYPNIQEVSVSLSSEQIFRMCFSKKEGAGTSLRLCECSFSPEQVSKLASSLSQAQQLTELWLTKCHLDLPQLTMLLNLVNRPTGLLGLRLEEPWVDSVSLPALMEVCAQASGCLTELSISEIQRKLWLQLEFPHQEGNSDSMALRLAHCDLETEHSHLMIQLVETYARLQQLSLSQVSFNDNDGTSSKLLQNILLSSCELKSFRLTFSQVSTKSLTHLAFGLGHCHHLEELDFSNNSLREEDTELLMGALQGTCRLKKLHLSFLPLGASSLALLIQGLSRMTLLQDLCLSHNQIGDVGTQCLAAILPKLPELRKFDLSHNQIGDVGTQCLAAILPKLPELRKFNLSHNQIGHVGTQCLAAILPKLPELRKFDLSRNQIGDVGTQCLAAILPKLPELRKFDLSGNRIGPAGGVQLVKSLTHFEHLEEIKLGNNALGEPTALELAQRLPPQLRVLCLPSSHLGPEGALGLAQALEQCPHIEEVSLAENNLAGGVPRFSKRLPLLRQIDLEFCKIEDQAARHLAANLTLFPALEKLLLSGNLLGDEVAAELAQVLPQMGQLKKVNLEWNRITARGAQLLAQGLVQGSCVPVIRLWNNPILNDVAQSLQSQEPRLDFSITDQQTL

[3] = molecular target: T1, HA-tagged NLRC5 (human NLRC5, full …); test: co-IP (anti-HA beads) and Western blot (anti-Flag), transfected 293T cells

Binder | binding result [1] | binding result [3] | further results
B1 | no binding |  | 
B2 | no binding |  | 
B3 |  |  | binding result [2]: no binding
B4 |  | no binding | 
B5 |  | no binding | 
B6 | no binding |  | 
